Source: article PMC4456301 (Structure (London, England : 1993), 2015)

Molecular target: the molecule itself
Test: AUC

B1: R135_50, a variant of Mimivirus R135 lacking the first 50 amino acids (domain or fragment)
chain: TKDNLTGDIVIIGAGAAGSLLAHYLARFSNMKIILLEAGHSHFNDPVVTDPMGFFGKYNPPNENISMSQNPSYSWQGAQEPNTGAYGNRPIIAHGMGFGGSTMINRLNLVVGGRTVFDNDWPVGWKYDDVKNYFRRVLVDINPVRDNTKASITSVALDALRIIAEQQIASGEPVDFLLNKATGNVPNVEKTTPDAVPLNLNDYEGVNSVVAFSSFYMGVNQLSDGNYIRKYAGNTYLNRNYVDENGRGIGKFSGLRVVSDAVVDRIIFKGNRAVGVNYIDREGIMHYVKVNKEVVVTSGAFYTPTILQRSGIGDFTYLSSIGVKNLVYNNPLVGTGLKNHYSPVTITRVHGEPSEVSRFLSNMAANPTNMGFKGLAELGFHRLDPNKPANANTVTYRKYQLMMTAGVGIPAEQQYLSGLSPSSNNLFTLIADDIRFAPEGYIKIGTPNIPRDVPKIFFNTFVTYTPTSAPADQQWPIAQKTLAPLISALLGYDIIYQTLMSMNQTARDSGFQVSLEMVYPLNDLIYKLHNGLATYGANWWHYFVPTLVGDDTPAGREFADTLSKLSYYPRVGAHLDSHQGCSCSIGRTVDSNLKVIGTQNVRVADLSAAAFPPGGNTWATASMIGARAVDLILGFPYLRDLPVNDVPILNVN
  stoichiometry N: 2
